T1: NHERF-1 PDZ2 (human, UniProt O14745)
T1 chain: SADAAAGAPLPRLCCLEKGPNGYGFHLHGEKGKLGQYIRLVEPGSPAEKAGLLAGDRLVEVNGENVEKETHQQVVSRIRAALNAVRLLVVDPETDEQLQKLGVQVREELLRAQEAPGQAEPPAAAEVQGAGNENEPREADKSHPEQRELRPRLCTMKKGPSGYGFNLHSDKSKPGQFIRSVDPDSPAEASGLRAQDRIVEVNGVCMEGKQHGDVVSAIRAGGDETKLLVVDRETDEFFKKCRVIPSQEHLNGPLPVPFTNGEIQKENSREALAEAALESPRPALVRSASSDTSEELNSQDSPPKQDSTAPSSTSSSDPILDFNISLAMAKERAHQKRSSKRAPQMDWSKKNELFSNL

T2: TIP-1 (human, UniProt O14907)
T2 chain: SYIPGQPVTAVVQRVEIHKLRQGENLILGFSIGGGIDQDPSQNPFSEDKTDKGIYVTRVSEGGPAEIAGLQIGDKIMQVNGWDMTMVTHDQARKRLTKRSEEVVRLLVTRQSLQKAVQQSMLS

T3: NHERF-1 PDZ1 (human, UniProt O14745)
T3 chain: T1 chain

Where no end group is shown, it is not given here.

The target in the first test is T1, NHERF-1 PDZ2. The experiment in a line: FP, competition.
ANSRLPTSK(Ac)I [ANSRLPTS[Ac-K]I]: the inhibitory constant (Ki) (usually the dissociation constant of the complex between target and ligand, obtained from inhibition or displacement) is over 5000 µM.

As to ANSRLPTSII [iCAL42 ANSRLPTSII], the Ki is over 5000 µM.

In turn, ANSRLPTSKI [ANSRLPTS[K-AEBA]I] came in with an inhibitory constant (Ki) of over 5000 µM.

In turn, ANSRWQVTRV showed a Ki of 208 µM.

In another test the target is T4, CAL PDZ (human, UniProt Q9HD26). As to the kind of experiment: FP, competition.
In turn, Ac-LPVTRV [Ac-LPVTRV] came in with a Ki of 4.42 µM.

With Ac-WPVTRV [Ac-WPVTRV], the affinity corresponds to a Ki of 1.22 µM.

The molecule ANSRWQVTRV [ANSRWQVTRV (second entry)] came in with a Ki of 1.13 µM.

As to ANSRWQVTRV, affinity was put at a Ki of 1.17 µM.

For the next test, the target named is T2, TIP-1. The experiment in a line: FP, competition.
Consider Ac-LPVTRV [Ac-LPVTRV], for which the inhibition constant (Ki) is over 5000 µM.

In turn, Ac-WPVTRV [Ac-WPVTRV] displayed an inhibitory constant (Ki) of 0.258 µM.

ANSRLPTSK(Ac)I [ANSRLPTS[Ac-K]I]: the Ki was over 5000 µM.

For the molecule ANSRLPTSII [iCAL42 ANSRLPTSII], the Ki is over 5000 µM.

For the molecule ANSRWQVTRV [ANSRWQVTRV (second entry)], the affinity, expressed as Ki, was 0.057 µM.

With ANSRLPTSKI [ANSRLPTS[K-AEBA]I], the Ki is over 5000 µM.

In the case of ANSRWQVTRV, the affinity, expressed as Ki, was 0.057 µM.

The target of another test is T3, NHERF-1 PDZ1. The experiment in a line: FP, competition.
ANSRLPTSK(Ac)I [ANSRLPTS[Ac-K]I] came in with a Ki of over 5000 µM.

On to ANSRLPTSII [iCAL42 ANSRLPTSII], for which the inhibition constant Ki was over 5000 µM.

Molecule ANSRWQVTRV [ANSRWQVTRV (second entry)] registered a Ki of 2.8 µM.

As for ANSRLPTSKI [ANSRLPTS[K-AEBA]I], the Ki is over 5000 µM.

ANSRWQVTRV showed a Ki of 2.8 µM.

The next test deals with T4, CAL PDZ.
Experiment: not given
Ac-WQVTRV [kCAL01] gave an inhibition constant (Ki) of about 1 µM.

For the origin of these results see patent publication US20180318382 (published 2018).
